Data on 4 molecules can be found in patent publication US7144862B2, “Orally administered peptides to ameliorate atherosclerosis” (The Regents of the University of California, priority 2000, dated 2006).

“Also recorded” adds a separate entry of the source. Non-standard residues stand in square brackets, D forms with d. Residues, ends and D or L forms follow the SMILES beside them.

In data set [1] the test system is Human aortic wall cocultures. Nature of the data set: LDL plus peptide in vitro in human aortic wall cocultures, monocyte chemotactic activity (Example 2). The data set is classed as cell-based. The following applies: control LDL 250 μg/ml plus varying amounts of peptide. How it is done: Human aortic wall cocultures were incubated with medium alone (LDL, NO CELLS or CELLS, NO LDL, see FIG. 9), control LDL from normal subjects at 250 μg/ml (LDL) and LDL plus control HDL from normal subjects at 350 μg/ml (+HDL). Other cocultures were incubated With the control LDL together with varying amounts (micrograms shown on the abscissa) of either D-2F, or L-2F (third panel from the left, 2F) or D-37-pA or L-37pA (last panel on the right, 37pA). The data represent mean±SD of values obtained from quadruplicate cocultures.

The test system of data set [2] is red blood cells of LDL receptor deficient mice. Nature of the data set: In vitro red cell lysis after gavage of D peptides. The data set is classed as in vivo, mouse. The following applies: 100 μg by gavage, blood 17 and 48 hrs later. How it is done:
Red cells were separated by centrifugation, were diluted to 10% hematocrit with PBS and incubated at 37° C. with gentle mixing. Aliquots were removed at time points t=0, 2, 6 and 18 hrs, cell pellets spun down and the optical density due to the released hemoglobin determined.

A short description of data set [3]: Antibody formation against D-2F (other studies). It is filed as in vivo.
Data set [4] deals with human artery wall cell cocultures. Nature of the data set: Lipoproteins from mice given peptide by gavage tested in human artery wall cell cocultures (monocyte chemotactic activity). Conditions: for resistance of circulating mouse LDL to oxidation (monocyte chemotactic activity): 100 μg by gavage, LDL receptor-deficient mice, blood 17 hrs later; for monocyte chemotaxis induced by LDL from mice given 2F by gavage: D versus L form by gavage.
Procedure: Groups of LDL receptor-deficient mice (n=3) were administered the D-peptides or the saline vehicle by gavage. […] Blood was collected from retroorbital sinus under mild anesthesia 17 hrs later. LDL was isolated from plasma by FPLC. Cocultures of artery wall cells were incubated with medium alone (NO ADDITION), control LDL from normal subjects (LDL), LDL plus control HDL from normal subjects (+HDL). […] The cocultures were incubated for 4 hrs at 37° C. in the presence of 10% LPDS. The supernatants were then discarded, the cocultures were washed and incubated with culture medium without serum or LPDS for an additional 4 hrs. This conditioned medium was collected and analyzed for monocyte chemotactic activity. The values are mean±SD of quadruplicate cocultures.
Blood was collect after 6 hrs, plasma HDL and LDL were isolated by gel filtration (FPLC) and examined in the cocultures. […] Human LDL at 200 μg protein/ml was added to human artery wall cell cocultures together with human HDL (hHDL) at 350 μg protein/ml or mouse HDL (mHDL) at 100 μg cholesterol/ml taken from mice that received saline (Saline Rx) or L-4F (L-4F Rx) or D-4F (D-4F Rx) and monocyte chemotactic activity was determined as described herein. […] On the right, mouse LDL (mLDL) was isolated from mice receiving saline (Saline Rx) or L-4F (L4F Rx) or D-4F (D-4F Rx) and was added at 100 μg cholesterol/ml to the artery wall cell cocultures without HDL and monocyte chemotactic activity determined. Values are mean±SD) for four wells in two independent experiments.
Either saline or 2F synthesized from D amino acids or from L amino acids was instilled in the stomachs of mice by gavage (instillation in the stomach by tube). After gavage the mice were bled and their LDL isolated and added to the human artery wall cell cocultures.
The animals were bled 1.5, 3 or 6 hours later and their HDL, LDL, and VLDL/IDL isolated.
Human aortic endothelial and smooth muscle cells were isolated and cultured as previously described (Id.). Cellular oxidation of LDL in the presence and absence of HDL was determined as described (Id.). Human blood monocytes were isolated after obtaining informed consent and monocyte chemotaxis was determined as described previously^5.

The subject of data set [5] is C57BL/6J mice fed an atherogenic diet. Nature of the data set: Aortic lesion formation, daily intraperitoneal injection for 16 weeks, atherogenic diet. The following applies: 5F 20 μg or MoAI 50 μg daily i.p. It is filed as in vivo, mouse. How it is done: The livers were removed and weighed.
Histological evaluations were performed according to the method of Paigen et al. (Paigen et al. (1990) Arteriosclerosis 10: 316–323) with some modifications. Briefly, hearts were fixed for at least one week in the phosphate-buffered formaldehyde solution. After removing the lower ⅔ of the hearts, the remaining tissue was frozen in OCT medium (Tissue-Tek, Miles Inc., Elkhart, Ind.) and sectioned in a cryostat at −20° C. Alternate 20 μm sections were saved on slides, and observed for the beginning of the aortic root. Sections were then collected for an additional 600 μm, or until the aortic cross-section was rounded and the valve cusps were no longer evident. Slides were stained with Oil Red O, and counterstained with hematoxylin. Stained lesion cross-sectional areas were measured in consecutive slides 80 μm apart by image analysis (SigmaScan Pro, SPSS Scientific, Chicago, Ill.), and the average lesion area was determined for each aortic sinus over the 400 μm length (five slides) providing the greatest mean lesion area.

A short description of data set [6]: Plasma cholesterol lipoprotein profiles (CLiP). The data set is classed as in vivo, mouse. Conditions: 16 weeks atherogenic diet, daily i.p. How it is done:
Plasma cholesterol lipoprotein profiles were measured using our recently-developed CLiP method (Garber et al. (2000) J. Lipid Res. 41:1020–1026). Briefly, 5 to 10 μl of plasma were analyzed using a single Superose 6 (Pharmacia, Piscataway N.J.) column. Immediately following the column, cholesterol reagent was introduced through a mixing tee, and the eluent:reagent mixture entered a post-column reaction coil. Cholesterol content of the eluent mixture was spectrophotometrically detected at 500 nm, and data points were collected into a computer. The resulting profiles were decomposed into component peaks and analyzed for relative area using PeakFit (SPSS Science, Chicago, Ill.); absolute cholesterol values for total cholesterol and each component peak were determined by comparison with a control sample of known values. In some cases fractions were collected to determine distribution of radioactivity. The CLiP method allowed analysis of individual mouse samples, avoiding the use of pooled samples.

Data set [7] can be described thus: Antibody detection by indirect ELISA after 16 weeks of daily injection. The data set is classed as in vivo, mouse. Conditions: plasma at conclusion of 16-week injection period. On the procedure: To determine whether daily injections of peptides elicited any immune response in mice, indirect ELISA titration (Engvall (1980) Meth. Enzymol. 70:419–439) was carried out with plasma taken from mice at the time of organ collection (following sixteen weeks of daily injection). Plates were coated with the injected peptides or MoAI (10 μg/ml). Plates were incubated overnight. After thorough washing with borate buffered saline (pH 8.2) containing 0.05% Tween 20, and blocking with buffer (0.1% gelatin and 0.1% BSA in borate buffer) for 1 h, 200 μl of the diluted mouse plasma (1:100 dilution) samples were serially diluted 1:1 with borate-buffered saline. Biotinylated goat antibody to mouse IgG (0.1 μg/ml) was then added to the wells and the plates were treated with SA-HRP (Streptavidin-horse radish peroxidase) for an hour and developed with ABTS and peroxide as substrate. The plates were incubated overnight at room temperature after every addition of antigen/antibody and washed thoroughly with borate buffered saline (pH 8.2) containing 0.05% Tween 20, and blocked with buffer (0.1% gelatin and 0.1% BSA in borate buffer) for 1 h before the next addition.
In general terms: An ELISA detects its analyte on a solid surface through an enzyme-linked reagent.

For data set [8] the following is noted: mouse, in vivo.
Procedure: The 5F peptide, MoAI, and human apo A-I were labeled with ^125I by the method of Bilheimer et al. (1972) Biochim. Biophys. Acta 260: 212–221. Mice were placed on a modified Thomas-Hartroft atherogenic diet (#TD88051; Teklad, Madison, Wis.) for four weeks at which time daily intraperitoneal injections of peptide or protein dissolved in 200 μl phosphate-buffered saline (PBS) were begun. Animals injected with MoAI or human apo A-I received 50 μg per animal; those injected with 5F received 20 μg. Animals were not fasted for the kinetic studies and blood samples were taken under xylazine:ketamine anesthesia from the retro-orbital sinus at 15, 30, and 45 minutes, and 1, 1.5, 2, 3, 4, 6, 8, 12, and 24 hours following injection. Each animal provided three blood samples at different time points (all retro-orbital and alternating eyes), and at least three samples were collected (from different animals) at each time point. Samples were collected into heparinized capillary tubes, then placed in microcentrifuge tubes; the plasma was separated by centrifugation. Duplicate 10 μl aliquots of each sample were taken for radioactivity determination, using gamma counting (Cobra; Packard Instruments, Downers Grove, Ill.) for 10 minutes per sample. Total plasma volume was calculated as 4.2% body weight. Each sample was expressed as percent of injected CPM in total plasma. Free ^125I was determined by trichloroacetic acid (TCA) precipitation (1 ml of 10% TCA per 10 μl plasma sample). Fitting to the kinetic model was done using all data points, rather than averages at each time point (PKAnalyst, MicroMath Scientific Software, Salt Lake City, Utah).
Treatment groups were compared by two-tailed t-tests or one way analysis of variance (where the data were normally distributed), or by one way analysis of variance on ranks (SigmaStat; SPSS Science, Chicago, Ill.). Kinetics of peptide or protein turnover were analyzed by fitting to a first order one-compartment kinetic model assuming non-equal input and output rates (PKAnalyst; MicroMath Scientific Software, Salt Lake City, Utah).
Data set [9] can be described thus: Survival, toxicity, body and liver weights after 16 weeks of injection.
Procedure: Mice were acquired at six weeks of age, and randomized into groups of 20, except that a negative control group of 10 received no treatments and was given standard rodent chow. At eight weeks of age, the treatment groups were placed on a modified Thomas-Hartroft atherogenic diet (#TD88051; Teklad, Madison, Wis.), and injections were begun. […] Animals were injected intraperitoneally daily for 16 weeks, including weekends and holidays.
At the end of the study (week 16), at the last bleeding, the heart and the liver were excised. […] The livers were removed and weighed.
Setting [10] is: after 16 weeks, atherogenic diet, daily i.p., mean ± SEM.

Turning to `CC(=O)N[C@H](CC(=O)O)C(=O)N[C@H](Cc1c[nH]c2ccccc12)C(=O)N[C@H](CC(C)C)C(=O)N[C@H](CCCCN)C(=O)N[C@H](C)C(=O)N[C@H](Cc1ccccc1)C(=O)N[C@H](Cc1ccc(O)cc1)C(=O)N[C@H](CC(=O)O)C(=O)N[C@H](CCCCN)C(=O)N[C@@H](C(=O)N[C@H](C)C(=O)N[C@H](CCC(=O)O)C(=O)N[C@H](CCCCN)C(=O)N[C@H](CC(C)C)C(=O)N[C@H](CCCCN)C(=O)N[C@H](CCC(=O)O)C(=O)N[C@H](C)C(=O)N[C@H](Cc1ccccc1)C(N)=O)C(C)C` [Peptide D-2F, Ac-D-W-L-K-A-F-Y-D-K-V-A-E-K-L-K-E-A-F-NH2] (Ac-[dD][dW][dL][dK][dA][dF][dY][dD][dK][dV][dA][dE][dK][dL][dK][dE][dA][dF]-NH2), the “monocyte chemotactic activity induced by LDL treated with peptide in vitro” value (shortened to “monocyte chemotactic activity induced”) in [1] was “significantly different from LDL; also recorded: equally able to block LDL oxidation and LDL-induced monocyte chemotactic activity”. Further, the “red cell lysis (hemolysis) after gavage” value in data set [2] is “resistant to hemolysis”. For the same molecule, the “antibody formation against the peptide” value in data set [3] is given as “not seen evidence of antibody formation”. In addition, in [4], the “resistance of circulating mouse LDL to oxidation (monocyte chemotactic activity)” value is “resistant to oxidation” and the “monocyte chemotaxis induced by LDL from mice given 2F by gavage” value was “reduced monocyte chemotaxis”.
For `CC(C)C[C@@H](NC(=O)[C@@H](Cc1c[nH]c2ccccc12)NC(=O)[C@H](N)CC(=O)O)C(=O)N[C@H](CCCCN)C(=O)N[C@H](C)C(=O)N[C@H](Cc1ccccc1)C(=O)N[C@H](Cc1ccc(O)cc1)C(=O)N[C@H](CC(=O)O)C(=O)N[C@H](CCCCN)C(=O)N[C@@H](C(=O)N[C@H](C)C(=O)N[C@H](CCC(=O)O)C(=O)N[C@H](CCCCN)C(=O)N[C@H](CC(C)C)C(=O)N[C@H](CCCCN)C(=O)N[C@H](CCC(=O)O)C(=O)N[C@H](C)C(=O)N[C@H](Cc1ccccc1)C(=O)N1CCC[C@@H]1C(=O)N[C@H](CC(=O)O)C(=O)N[C@H](Cc1c[nH]c2ccccc12)C(=O)N[C@H](CC(C)C)C(=O)N[C@H](CCCCN)C(=O)N[C@H](C)C(=O)N[C@H](Cc1ccccc1)C(=O)N[C@H](Cc1ccc(O)cc1)C(=O)N[C@H](CC(=O)O)C(=O)N[C@H](CCCCN)C(=O)N[C@@H](C(=O)N[C@H](C)C(=O)N[C@H](CCC(=O)O)C(=O)N[C@H](CCCCN)C(=O)N[C@H](CC(C)C)C(=O)N[C@H](CCCCN)C(=O)N[C@H](CCC(=O)O)C(=O)N[C@H](C)C(=O)N[C@H](Cc1ccccc1)C(=O)O)C(C)C)C(C)C` [Peptide D-37pA] (H-[dD][dW][dL][dK][dA][dF][dY][dD][dK][dV][dA][dE][dK][dL][dK][dE][dA][dF][dP][dD][dW][dL][dK][dA][dF][dY][dD][dK][dV][dA][dE][dK][dL][dK][dE][dA][dF]-OH), the “monocyte chemotactic activity induced” value in data set [1] is listed as “significantly different from LDL”. In addition, the “red cell lysis (hemolysis) after gavage” value in data set [2] is listed as “resistant to hemolysis”. In addition, the “resistance of circulating mouse LDL to oxidation (monocyte chemotactic activity)” value in data set [4] was “resistant to oxidation”.
“Ac-DWLKAFYDKVAEKLKEAF-NH2 [Peptide L-2F, Ac-D-W-L-K-A-F-Y-D-K-V-A-E-K-L-K-E-A-F-NH2]”: the “monocyte chemotactic activity induced” value in data set [1] is “significantly different from LDL; also recorded: equally able to block LDL oxidation and LDL-induced monocyte chemotactic activity”. For the same molecule, in data set [4], the “monocyte chemotaxis induced by LDL from mice given 2F by gavage” value is on record as “readily induced monocyte chemotaxis”.

B1: Mouse apo A-I: mouse apo A-I isolated from the plasma of C57BL/6J mice (protein, UniProt Q00623 25-264, looked up)
Apolipoprotein A-I: DEPQSQWDKVKDFANVYVDAVKDSGRDYVSQFESSSLGQQLNLNLLENWDTLGSTVSQLQERLGPLTRDFWDNLEKETDWVRQEMNKDLEEVKQKVQPYLDEFQKKWKEDVELYRQKVAPLGAELQESARQKLQELQGRLSPVAEEFRDRMRTHVDSLRTQLAPHSEQMRESLAQRLAELKSNPTLNEYHTRAKTHLKTLGEKARPALEDLRHSLMPMLETLKTQVQSVIDKASETLTAQ
For the molecule B1, the “mean lesion cross-sectional area compared with PBS-injected animals” value in [5] is on record as “no difference in lesion area”. For the same molecule, in data set [6], the “HDL as percent of total cholesterol” value was “(9.34 ± 1.19%*)”, the “IDL + LDL as percent of total cholesterol” value was “(42.44 ± 2.46%)” and the “VLDL as percent of total cholesterol” value is reported as “(48.23 ± 2.75%)”. For the same molecule, in [6] (mean ± SEM), the HDL cholesterol is 19.50 ± 3.07 mg/dL, the “IDL + LDL cholesterol” value was determined as 87.86 ± 8.34 mg/dL, the “TC (total cholesterol)” value amounted to 207.45 ± 16.94 mg/dL and the VLDL cholesterol was found to be 100.08 ± 9.73 mg/dL. In data set [7], the “antibodies against the injected material” value is recorded as “No antibodies were detected”. The “Max. % in plasma” value in data set [8] turned out to be 13.5%. Besides, in [8] (ip), the “Time (h) to max. CPM” value worked out at 1.74 h and the “T½” value is 15.7 h. Besides, in [9] (16 weeks daily i.p. injection), the toxicity result is “No toxicity”. Moreover, in data set [9] (setting [10]), the “Body Weight” value stood at 21.16 ± 0.34 g, the “Liver Weight” value is 1.72 ± 0.04 g and the “Liver: Body (percentage)” value is reported as 8.15 ± 0.23%. Besides, the “mice died from unexplained causes” value in data set [9] (during the prolonged diet studies, groups of 20) is reported as “Two”.
